Data taken from patent US20060205032.

T1: recombinant human STAT1 (Biosource), P42224
T1 chain: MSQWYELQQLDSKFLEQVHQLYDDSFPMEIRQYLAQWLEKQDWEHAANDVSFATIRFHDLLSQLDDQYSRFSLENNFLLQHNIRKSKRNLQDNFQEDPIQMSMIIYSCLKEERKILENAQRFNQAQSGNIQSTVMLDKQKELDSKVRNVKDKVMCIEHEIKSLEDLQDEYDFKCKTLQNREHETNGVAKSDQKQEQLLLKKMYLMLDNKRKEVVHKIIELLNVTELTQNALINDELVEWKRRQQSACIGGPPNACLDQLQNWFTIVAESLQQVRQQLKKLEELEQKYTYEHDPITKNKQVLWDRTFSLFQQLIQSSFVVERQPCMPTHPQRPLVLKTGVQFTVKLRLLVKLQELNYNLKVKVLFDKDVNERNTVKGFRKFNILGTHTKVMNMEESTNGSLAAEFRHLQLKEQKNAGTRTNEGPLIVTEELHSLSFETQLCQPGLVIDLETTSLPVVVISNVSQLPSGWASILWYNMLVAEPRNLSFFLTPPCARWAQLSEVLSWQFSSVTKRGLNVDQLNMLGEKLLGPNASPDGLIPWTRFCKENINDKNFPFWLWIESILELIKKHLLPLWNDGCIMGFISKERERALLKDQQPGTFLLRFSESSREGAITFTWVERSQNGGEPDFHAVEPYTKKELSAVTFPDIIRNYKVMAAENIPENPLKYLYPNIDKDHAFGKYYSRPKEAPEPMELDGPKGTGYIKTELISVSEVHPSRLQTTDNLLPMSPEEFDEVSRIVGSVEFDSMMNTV


Assays:
[1] = target: T1, recombinant human STAT1 (Biosource), …
[2] = target: UbcH5a (human recombinant E2), P51668
UbcH5a (human recombinant E2), P51668, sequence (P51668 whole entry): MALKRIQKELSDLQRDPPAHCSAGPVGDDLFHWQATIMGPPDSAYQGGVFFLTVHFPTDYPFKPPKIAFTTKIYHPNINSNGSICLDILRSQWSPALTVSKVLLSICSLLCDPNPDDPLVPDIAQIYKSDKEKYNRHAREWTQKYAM

| Protein | ubiquitination of STAT1 (ubiquitin transfer assay, Avidin-HRP blot) [1] | ubiquitination of WT-Δ52-hSLIM with different human E2 enzymes (Avidin-HRP blot) [2] |
| --- | --- | --- |
| GST-SLIM (bacterially expressed wild-type GST-hSLIM) (protein) MALTVDVAGPAPWGFRITGGRDFHTPIMVTKVAERGKAKDADLRPGDIIVAINGESAEGMLHAEAQSKIRQSPSPLRLQLDRSQATSPGQTNGDSSLEVLATRFQGSVRTYTESQSSLRSSYSSPTSLSPRAGSPFSPPPSSSSLTGEAAISRSFQSLACSPGLPAADRLSYSGRPGSRQAGLGRAGDSAVLVLPPSPGPRSSRPSMDSEGGSLLLDEDSEVFKMLQENREGRAAPRQSSSFRLLQEALEAEERGGTPAFLPSSLSPQSSLPASRALATPPKLHTCEKCSTSIANQAVRIQEGRYRHPGCYTCADCGLNLKMRGHFWVGDELYCEKHARQRYSAPATLSSRA | WT-SLIM mediates the ubiquitination of STAT1 and demonstrates strong E3 ligase activity towards both STAT1 and hSLIM |  |
| GST-Δ52-hSLIM (protein) MALTVDVAGPAPWGFRITGGRDFHTPIMVTKVAERGKAKDADLRPGDIIVAINGESAEGMLHAEAQSKIRQSPSPLRLQLDRSQATSPGQTNGDSSLEVLATRFQGSVRTYTESQSSLRSSYSSPTSLSPRAGSPFSPPPSSSSLTGEAAISRSMDSEGGSLLLDEDSEVFKMLQENREGRAAPRQSSSFRLLQEALEAEERGGTPAFLPSSLSPQSSLPASRALATPPKLHTCEKCSTSIANQAVRIQEGRYRHPGCYTCADCGLNLKMRGHFWVGDELYCEKHARQRYSAPATLSSRA | WT-Δ52-hSLIM demonstrates E3 ligase activity by transferring ubiquitin to a biologically relevant downstream substrate, STAT1 | WT-A52-hSLIM demonstrates preferential ubiquitination in the presence of UbcH5a |
